Patent publication US5723436, “Calcineurin interacting protein compositions and methods” (The Board of Trustees of the Leland Stanford Junior …, dated 1998)

B1: GBT-A1 (G4BD-CNA1) (other)
chain: MKLLSSIEQACDICRLKKLKCSKEKPKCAKCLKNNWECRYSPKTKRSPLTRAHLTEVESRLERLEQLFLLIFPREDLDMILKMDSLQDIKALLTGLFVQDNVNKDAVTDRLASVETDMPLTLRQHRISATSSSEESSNKGQRQLTVSMSKDLNSSRIKIIKPNDSYIKVDRKKDLTKYELENGKVISTKDRSYASVPAITGKIPSDEEVFDSKTGLPNHSFLREHFFHEGRLSKEQAIKILNMSTVALSKEPNLLKLKAPITICGDIHGQYYDLLKLFEVGGDPAEIDYLFLGDYVDRGAFSFECLIYLYSLKLNNLGRFWMLRGNHECKHLTSYFTFKNEMLHKYDMEVYDACCRSFNVLPLAALMNGQYFCVHGGISPELKSVEDVNKINRFREIPSRGLMCDLLWADPVENYDDARDGSEFDQSEDEFVPNSLRGCSFAFTFKASCKFLKANGLLSIIRAHEAQDAGYRMYKNNKVTGFPSLITMFSAPNYLDTYHNKAAVLKYEENVMNIRQFHMSPHPYWLPDFMDVFTWSLPFVGEKVTSMLVSILNICSEQELDPESEPKAAEETVKARANATKETGTPSDEKASSAILEDETRRKALRNKILAIAKVSRMFSVLREESEKVEYLKTMNAGVLPRGALARGTEGLNETLSTFEKARKEDLINEKLPPSLSEVEQEKIKYYEKILKGAEKKPQL
B2: GBT-A2 (G4BD-CNA2) (other)
chain: MKLLSSIEQACDICRLKKLKCSKEKPKCAKCLKNNWECRYSPKTKRSPLTRAHLTEVESRLERLEQLFLLIFPREDLDMILKMDSLQDIKALLTGLFVQDNVNKDAVTDRLASVETDMPLTLRQHRISATSSSEESSNKGQRQLTVSMSSDAIRNTEQINAAIKIIENKTERPQSSTTPIDSKASTVAAANSTATETSRDLTQYTLDDGRVVSTNRRIMNKVPAITSHVPTDEELFQPNGIPRHEFLRDHFKREGKLSAAQAARIVTLATELFSKEPNLISVPAPITVCGDIHGQYFDLLKLFEVGGDPATTSYLFLGDYVDRGSFSFECLIYLYSLKLNFNDHFWLLRGNHECKHLTSYFTFKNEMLHKYNLDIYEKCCESFNNLPLAALMNGQYLCVHGGISPELNSLQDINNLNRFREIPSHGLMCDLLWADPIEEYDEVLDKDLTEEDIVNSKTMVPHHGKMAPSRDMFVPNSVRGCSYAFTYRAACHFLQETGLLSIIRAHEAQDAGYRMYKNTKTLGFPSLLTLFSAPNYLDTYNNKAAILKYENNVMNIRQFNMTPHPYWLPDFMDVFTWSLPFVGEKVTEMLVAILNICTEDELENDTPVIEELVGTDKKLPQAGKSEATPQPATSASPKHASILDDEHRRKALRNKILAVAKVSRMYSVLREETNKVQFLKDHNSGVLPRGALSNGVKGLDEALSTFERARKHDLINEKLPPSLDELKNENKKYYEKVWQKVHEHDAKNDSK

Molecular target: GAD (GAL4 activation domain alone, from pGAD) (yeast, UniProt P04386)
Test: yeast GAL4 two-hybrid, fusion tested against the complementary GAL4 domain not fused to a second protein

Row | Binder | binding result
1 | B1 | no binding
2 | B2 | no binding
